Measurements: publication PMC9779362, “The J Domain of Sacsin Disrupts Intermediate Filament Assembly” (International Journal of Molecular Sciences, 2022)

Target: the molecule itself
Test: negative-stain transmission electron microscopy of in vitro assembly; purified NFL (0.24 µg/µL) dialysed stepwise out of urea into assembly buffer, overnight at 4 °C; 2% uranyl acetate

B1: recombinant human NFL (neurofilament light chain) (natural protein, UniProt P07196 1-543, looked up)
chain: MSSFSYEPYYSTSYKRRYVETPRVHISSVRSGYSTARSAYSSYSAPVSSSLSVRRSYSSSSGSLMPSLENLDLSQVAAISNDLKSIRTQEKAQLQDLNDRFASFIERVHELEQQNKVLEAELLVLRQKHSEPSRFRALYEQEIRDLRLAAEDATNEKQALQGEREGLEETLRNLQARYEEEVLSREDAEGRLMEARKGADEAALARAELEKRIDSLMDEISFLKKVHEEEIAELQAQIQYAQISVEMDVTKPDLSAALKDIRAQYEKLAAKNMQNAEEWFKSRFTVLTESAAKNTDAVRAAKDEVSESRRLLKAKTLEIEACRGMNEALEKQLQELEDKQNADISAMQDTINKLENELRTTKSEMARYLKEYQDLLNVKMALDIEIAAYRKLLEGEETRLSFTSVGSITSGYSQSSQVFGRSAYGGLQTSSYLMSTRSFPSYYTSHVQEEQIEVEETIEAAKAEEAKDEPPSEGEAEEEEKDKEEAEEEEAAEEEEAAKEESEEAKEEEEGGEGEEGEETKEAEEEEKKVEGAGEEQAAKKKD
notes: neurofilament light polypeptide (NFL), human, cloned into pET23b (gift of Dr. Walter Mushynski); Used as assembled filaments (TEM, sedimentation) and as the soluble fraction after centrifugation (pull-down); also called soluble recombinant NFL; source: bacteria (pET23b), inclusion bodies solubilised in 8 M urea, purified on hydroxyapatite, dialysed into assembly buffer
- binding result: binds
